This note sets out measurements from the RNAGym collection of RNA variant scans (doi:10.7554/elife.90254).

To fix the notation:
B1: LINE1-mini (parent)
chain: GGCAGAGCUCAACACAGCGUGGCAAAGUGGCUGUGGCUAGACUGCC

The variants in the series derive from B1. In words: self-cleavage, relative activity (ratio to wild type); higher = more cleavage; in vitro, sequencing; the parent is a self-cleaving ribozyme.
Regarding G5C U9A, the self-cleavage came to 0.12.

For G5C U9G, the self-cleavage was determined as 0.04. With G5C U9C, the self-cleavage came out at 0.04. A6C C8A: the self-cleavage turned out to be 0.26. For the variant A6C C8U, the self-cleavage was found to be 0.51. Regarding A6C C8G, the self-cleavage was found to be 0.07. For G5C G36A the value was 0.06; for G5C G36U, 0.04; for G5C G36C, 0.06. Consider A6C C46A, for which the self-cleavage came out at 0.5.

Consider A6C C46U, for which the self-cleavage is 0.89.

Take A6C C46G: the self-cleavage worked out at 0.46. Take G5U A41G: the self-cleavage came to 0.06. For G5U A41C the value was 0.07; for G5U A41U, 0.08.

For the variant G5C A41U, the self-cleavage is 0.09. For G5C A41G the value was 0.07; for G5C A41C, 0.04; for G5U C8U, 0.26. For G5U C8G the value was 0.14; for G5U C8A, 0.53. In the case of G5U C23A it was 0.11.

In the case of G5U C23U, the self-cleavage was 0.12. With G5U C23G, the self-cleavage was 0.12.

For G5A U32C, the self-cleavage came out at 0.07. In the case of G5A U32A, the self-cleavage stood at 0.06. For the variant G5A U32G, the self-cleavage worked out at 0.04. In the case of G5C G19U it was 0.14; in that of G5C G19C, 0.08; in that of G5C G19A, 0.14. As to A6C C42A, the self-cleavage was determined as 0.11. Take A6C C42G: the self-cleavage is 0.02. As for A6C C42U, the self-cleavage is 0.23. For the variant G5C G30A, the self-cleavage was 0.02. For G5C G30C the value was 0.07; for G5C G30U, 0.17; for G5C C46G, 0.11.

In the case of G5C C46A, the self-cleavage came to 0.09. In the case of G5C C46U, the self-cleavage is 0.06.

As for G5C G35U, the self-cleavage stood at 0.07. In the case of G5C G35A it was 0.1. With G5C G35C, the self-cleavage is 0.06. For G5U C13G the value was 0.23.

With G5U C13U, the self-cleavage was determined as 0.11. As to G5U C13A, the self-cleavage came to 0.09. As for G5U C15U, the self-cleavage was determined as 0.08. For G5U C15G the value was 0.09; for G5U C15A, 0.05; for G5C C8U, 0.11. In the case of G5C C8G it was 0.07; in that of G5C C8A, 0.18; in that of G5C U28A, 0.1. Consider G5C U28C, for which the self-cleavage came out at 0.05. For G5C U28G the value was 0.02; for A6C A11G, 0.02; for A6C A11C, 0.05. For A6C A11U the value was 0.1. With A6C A25U, the self-cleavage came to 0.52.

Take A6C A25C: the self-cleavage was determined as 0.5. For A6C A25G the value was 0.18.

On to G5C G29A, for which the self-cleavage was found to be 0.05.

With G5C G29C, the self-cleavage stood at 0.05.

As to G5C G29U, the self-cleavage came to 0.12. In the case of A6C C31A it was 0.11; in that of A6C C31U, 0.22.

For A6C C31G, the self-cleavage was determined as 0.09. With G5U G27C, the self-cleavage came to 0.05. Take G5U G27U: the self-cleavage was 0.11.

As for G5U G27A, the self-cleavage came to 0.06.

Consider A6C C13A, for which the self-cleavage is 0.12. On to A6C C13G, for which the self-cleavage was found to be 0.15. In the case of A6C C13U it was 0.14.

With G5C G22U, the self-cleavage was 0.04.

For G5C G22C, the self-cleavage turned out to be 0.13. For G5C G22A the value was 0.08. G5U G40C: the self-cleavage turned out to be 0.05. With G5U G40U, the self-cleavage was found to be 0.09.

Consider G5U G40A, for which the self-cleavage came out at 0.06. In the case of G5U A12U, the self-cleavage was found to be 0.06. Regarding G5U A12G, the self-cleavage is 0.04. Regarding G5U A12C, the self-cleavage came to 0.04.

For the variant G5U C31A, the self-cleavage worked out at 0.04. With G5U C31U, the self-cleavage was determined as 0.06. For G5U C31G the value was 0.05; for A6C A12G, 0.04.

Take A6C A12U: the self-cleavage turned out to be 0.16. Take A6C A12C: the self-cleavage stood at 0.06.

For the variant G5U G29C, the self-cleavage amounted to 0.04. For G5U G29A the value was 0.15; for G5U G29U, 0.12. Regarding G5U A6U, the self-cleavage is 0.16. For G5U A6G the value was 0.07. In the case of G5U A6C it was 0.16; in that of G5U U20G, 0.06.

In the case of G5U U20A, the self-cleavage turned out to be 0.06. For G5U U20C the value was 0.05. For A6C C15G, the self-cleavage is 0.04. With A6C C15U, the self-cleavage was found to be 0.66. For the variant A6C C15A, the self-cleavage is 0.1.

Consider G5A U28G, for which the self-cleavage amounted to 0.2. For G5A U28C the value was 0.14.

As for G5A U28A, the self-cleavage stood at 0.12. Turning to G5U A25G, the self-cleavage was 0.12. For G5U A25U the value was 0.08; for G5U A25C, 0.05. For G5U U28A the value was 0.06; for G5U U28C, 0.09. In the case of G5U U28G it was 0.09; in that of G5C G44A, 0.05; in that of G5C G44C, 0.04. Consider G5C G44U, for which the self-cleavage worked out at 0.09. For G5C C15U the value was 0.08. G5C C15A: the self-cleavage stood at 0.05. With G5C C15G, the self-cleavage turned out to be 0.03. In the case of G5U A14C it was 0.06; in that of G5U A14G, 0.06. For the variant G5U A14U, the self-cleavage stood at 0.07. For G5C A16U the value was 0.04; for G5C A16G, 0.04; for G5C A16C, 0.07. With G5U C37A, the self-cleavage amounted to 0.06. Take G5U C37G: the self-cleavage was 0.07. For G5U C37U the value was 0.05; for G5U U34A, 0.04; for G5U U34C, 0.07.

In the case of G5U U34G, the self-cleavage was found to be 0.04. In the case of G5C C42G it was 0.46; in that of G5C C42U, 0.05.

As to G5C C42A, the self-cleavage came out at 0.09. For G5C G33A the value was 0.09; for G5C G33U, 0.06. For the variant G5C G33C, the self-cleavage stood at 0.03.

In the case of A6C A26U, the self-cleavage is 0.77.

For A6C A26G, the self-cleavage worked out at 0.65.

Take A6C A26C: the self-cleavage stood at 0.48. On to G5C A26U, for which the self-cleavage stood at 0.06.

Consider G5C A26C, for which the self-cleavage was 0.06. Regarding G5C A26G, the self-cleavage worked out at 0.05.

For the variant G5U, the self-cleavage was 0.14. For G5C the value was 0.07; for G5U C45U, 0.08. For G5U C45G the value was 0.08; for G5U C45A, 0.08; for G5C A11C, 0.04. For G5C A11U the value was 0.03; for G5C A11G, 0.05. Consider G5U G30A, for which the self-cleavage worked out at 0.18. For G5U G30U the value was 0.26; for G5U G30C, 0.05. Turning to G5C U34C, the self-cleavage worked out at 0.06. In the case of G5C U34A it was 0.06. In the case of G5C U34G, the self-cleavage came out at 0.06. In the case of G5U U38G it was 0.03; in that of G5U U38C, 0.05; in that of G5U U38A, 0.08. For A6C C10U the value was 0.15. For A6C C10G the value was 0.05. Consider A6C C10A, for which the self-cleavage turned out to be 0.11. In the case of A6C C23G, the self-cleavage came to 0.43. A6C C23A: the self-cleavage was found to be 0.5. In the case of A6C C23U it was 0.62; in that of G5C G7U, 0.25; in that of G5C G7C, 0.08. Consider G5C G7A, for which the self-cleavage turned out to be 0.22. For G5U G17U the value was 0.05; for G5U G17A, 0.1.

Regarding G5U G17C, the self-cleavage stood at 0.06.
